Each block holds one binder with its values, some of them ahead of it.
What was measured:
VISTA-Fc = biological target: T1, VISTA-Fc (UniProt Q9H7M9 33-194); assay: competition ELISA: VISTA-Fc coated, VSIG3-His 0.3 ug/ml as the blocked ligand, anti-His-HRP detection
T1 construct: also called VISTA-Ig; not shown: Fc/Ig part not described

[1] = biological target: T2, recombinant human VISTA (His-tagged) (human, UniProt Q9H7M9 33-194); assay: BLI (Octet QK384): His-tagged human VISTA on anti-Penta-HIS tips, V4 1000 to 31.3 nM as analyte, global fit; value of the table column kdis(1/s)
T2 construct: bought soluble protein (Sino Biological); also called hVISTA; human VISTA polypeptide

[2] = biological target: T2, recombinant human VISTA (His-tagged); assay: antigen-binding ELISA; HMBD-002 10 mg/mL in F2, day 0
[3] = biological target: T2, recombinant human VISTA (His-tagged); assay: antigen-binding ELISA; HMBD-002 10 mg/mL in F7, day 0
[4] = biological target: T2, recombinant human VISTA (His-tagged); assay: antigen-binding ELISA; HMBD-002 in F7, day 30 at 40°C
[5] = biological target: T2, recombinant human VISTA (His-tagged); assay: antigen-binding ELISA; HMBD-002 in F9, day 30 at 40°C
[6] = biological target: T2, recombinant human VISTA (His-tagged); assay: antigen-binding ELISA; HMBD-002 in F10, day 30 at 40°C
[7] = biological target: T3, human VISTA expressed on cells (human, UniProt Q9H7M9 33-311); assay: flow cytometry, endogenous VISTA on CD11b+ myeloid cells of PBMCs
T3 construct: also called HEK293 VISTA O/E; HEK293T or HEK293-6E cells overexpressing human VISTA

[8] = biological target: T4, mouse VISTA expressed on cells (mouse, UniProt Q9D659 33-308); assay: as above
T4 construct: whole, on cells; also called murine VISTA on transfected cells; VISTA on mouse CD11b+ myeloid cells
T4 sequence (looked up): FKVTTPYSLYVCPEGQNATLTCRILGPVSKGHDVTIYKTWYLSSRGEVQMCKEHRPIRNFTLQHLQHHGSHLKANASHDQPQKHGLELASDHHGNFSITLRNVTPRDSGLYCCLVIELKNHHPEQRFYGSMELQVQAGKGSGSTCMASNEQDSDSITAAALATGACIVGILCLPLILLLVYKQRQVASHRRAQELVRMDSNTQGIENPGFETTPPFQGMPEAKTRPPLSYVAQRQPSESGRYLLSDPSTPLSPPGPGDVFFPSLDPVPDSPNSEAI

[9] = biological target: T5, rat VISTA expressed on cells (rat, UniProt A0ABK0L5H3 33-310); assay: as above
T5 construct: whole, on cells; also called rat VISTA on HEK293T cells; VISTA on rat CD11b+ myeloid cells
T5 sequence: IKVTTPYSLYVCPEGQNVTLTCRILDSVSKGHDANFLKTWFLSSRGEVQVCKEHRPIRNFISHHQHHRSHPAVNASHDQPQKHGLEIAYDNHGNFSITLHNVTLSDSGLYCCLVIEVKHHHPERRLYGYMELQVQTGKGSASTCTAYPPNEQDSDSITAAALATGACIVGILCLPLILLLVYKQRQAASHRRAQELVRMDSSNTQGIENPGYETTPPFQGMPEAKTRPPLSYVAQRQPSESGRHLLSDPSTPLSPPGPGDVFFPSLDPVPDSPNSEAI

human B7H4 [10] = biological target: T6, human B7H4 (human, UniProt Q7Z7D3 25-258, limits assumed); assay: ELISA, plate coated with human B7H4, antibody titrated
T6 construct: also called VTCN1
T6 sequence (looked up): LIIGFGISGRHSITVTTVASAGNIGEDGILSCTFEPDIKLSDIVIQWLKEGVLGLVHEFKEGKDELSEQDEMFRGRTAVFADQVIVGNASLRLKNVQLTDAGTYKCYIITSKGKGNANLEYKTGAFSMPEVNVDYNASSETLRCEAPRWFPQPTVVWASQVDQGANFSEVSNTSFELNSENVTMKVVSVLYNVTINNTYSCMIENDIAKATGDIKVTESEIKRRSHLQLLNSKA

[11] = biological target: T2, recombinant human VISTA (His-tagged); assay: antigen-binding ELISA; reference standard run with the day 30 samples
[12] = biological target: T2, recombinant human VISTA (His-tagged); assay: ELISA on coated human VISTA, antibody diluted in buffer of pH 6.5
[13] = biological target: T2, recombinant human VISTA (His-tagged); assay: ELISA on coated human VISTA, antibody diluted in buffer of pH 7.5
human B7H3 = biological target: T7, human B7H3 (human, UniProt Q5ZPR3 29-461, limits assumed); assay: ELISA, plate coated with the antigen
T7 construct: also called CD276
T7 sequence (looked up): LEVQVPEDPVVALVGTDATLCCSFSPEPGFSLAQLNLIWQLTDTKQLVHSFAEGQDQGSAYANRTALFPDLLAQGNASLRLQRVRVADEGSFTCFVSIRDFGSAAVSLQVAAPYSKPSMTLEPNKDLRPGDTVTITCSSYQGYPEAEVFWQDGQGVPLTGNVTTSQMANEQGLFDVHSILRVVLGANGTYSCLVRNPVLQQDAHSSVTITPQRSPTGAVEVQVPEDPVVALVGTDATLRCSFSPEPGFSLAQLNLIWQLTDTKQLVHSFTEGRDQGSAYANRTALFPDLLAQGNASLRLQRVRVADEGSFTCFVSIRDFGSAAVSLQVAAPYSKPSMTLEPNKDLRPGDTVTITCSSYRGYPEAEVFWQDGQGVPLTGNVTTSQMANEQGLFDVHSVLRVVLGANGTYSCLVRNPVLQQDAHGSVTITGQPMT

human B7H4 [14] = biological target: T6, human B7H4; assay: ELISA, plate coated with the antigen

IC50 (read off the curve) (VISTA-Fc): ~4000 pM
koff [1]: < 1e-07 s⁻¹
B1: anti-VISTA clone 4M2-C12 IgG1 (antibody)
heavy: not shown
light: DIVITQTPAILSTSPGEKVTMTCRASSSVGYIHWYQQKPGSSPKPWIYATSNLASGVPARFSGSGSGTSNSLTITRVEAEDAATYYCQQWSSYPPITFGGGTKLEVKRTVAAPSVFIFPPSDEQLKSGTASVVCLLNNFYPREAKVQWKVDNALQSGNSQESVTEQDSKDSTYSLSSTLTLSKADYEKHKVYACEVTHQGLSSPVTKSFNRGEC
notes: mouse variable regions on human IgG1/kappa constant regions; also called V4; V4pr

EC50 [2]: 33.9 pM
EC50 [3]: 28.9 pM
EC50 [4]: 21.7 pM
EC50 [5]: 23.7 pM
EC50 [6]: 27 pM
EC50 [7]: 108000 pM
EC50 [8]: 111000 pM
EC50 [9]: 48600 pM
binding result (human B7H4 [10]): no binding (tested: about 3e-8 M)
EC50 [11]: 52.7 pM
EC50 [12]: 36.3 pM
EC50 [13]: 28.7 pM
B2: V4-C26 hIgG4 (antibody)
heavy: not shown
light: EIVLTQSPATLSLSPGERATLSCRASSSVGYIHWYQQKPGQAPRPIIYTTSNRATGIPARFSGSGSGTDNTLTISSLEPEDSAVYYCQQWSSYPPITFGGGTKLEVKRTVAAPSVFIFPPSDEQLKSGTASVVCLLNNFYPREAKVQWKVDNALQSGNSQESVTEQDSKDSTYSLSSTLTLSKADYEKHKVYACEVTHQGLSSPVTKSFNRGEC
notes: human IgG4 (S228P)/kappa format; also called HMBD-002; HMBD-002-V4C26

binding result (human B7H3): no binding (tested: log -7.5 M)
binding result (human B7H4 [14]): no binding (tested: log -7.5 M)
B3: anti-VISTA clone V4-C24 IgG1 (antibody, V domains shown)
VH: QVQLQESGPGLVKPSDTLSLTCTVSGYSITSDYTWNWIRQTPGKGLEWIGHITYSGSVSYNPSLRSRVTISRDTSKNQFSLKLSSVTAADTATYSCARALYYPWYFDVWGTGTTVTVSS
VL: EIVLTQSPATLSLSPGERATLSCRASSSVGYIHWYQQKPGQAPRPLIYTTSYRATGIPARFSGSGSGTDNTLTISSLEPEDSAVYYCQQWSSYPPITFGGGTKLEVKR

From patent US20250313631A1 (HUMMINGBIRD BIOSCIENCE PTE, published 2025)
